Measurements: publication doi:10.1101/2024.01.14.575554 (bioRxiv, 2024)

Target: T1, Alexa-488 tagged Hsp60α (Sulfolobus acidocaldarius, UniProt Q9V2T5 1-558, Alexa-488 label (site not stated))
T1 sequence (looked up): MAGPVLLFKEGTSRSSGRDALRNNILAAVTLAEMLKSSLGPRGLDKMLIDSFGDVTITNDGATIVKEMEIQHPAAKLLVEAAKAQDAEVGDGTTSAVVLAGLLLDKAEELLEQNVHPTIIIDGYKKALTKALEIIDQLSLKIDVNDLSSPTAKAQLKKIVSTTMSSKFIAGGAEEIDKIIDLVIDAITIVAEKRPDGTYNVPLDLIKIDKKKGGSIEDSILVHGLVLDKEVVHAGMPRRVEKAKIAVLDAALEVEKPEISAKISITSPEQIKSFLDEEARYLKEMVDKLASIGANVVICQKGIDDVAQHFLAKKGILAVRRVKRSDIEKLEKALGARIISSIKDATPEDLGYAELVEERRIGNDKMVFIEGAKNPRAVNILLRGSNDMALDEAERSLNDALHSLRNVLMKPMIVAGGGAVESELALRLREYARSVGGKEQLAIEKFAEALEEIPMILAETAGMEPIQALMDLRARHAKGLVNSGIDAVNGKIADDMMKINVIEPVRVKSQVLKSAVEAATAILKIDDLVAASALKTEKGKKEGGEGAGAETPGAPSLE
Test: FRET or BRET

Kd: 167 ± 1.7 nM
B1: Alexa-532 tagged Hsp60β (natural protein, Sulfolobus acidocaldarius, UniProt Q9V2T4 1-553, looked up)
chain: MSATATVATTPEGIPVIILKEGSSRTYGKEALRINIAAVKAVEEALKTTYGPRGMDKMLVDSLGDITITNDGATILDKMDLQHPAAKLLVQIAKGQDEETADGTKTAVIFSGELVKKAEELLYKEIHPTIIVSGYKKAEEMAIKTIEEISTKVSVNDTEILRKVALTSLSSKAVAGAREHLADIVVKAITQVAELRGDKWYVDLDNVQIVKKHGGSINDTQIVYGIIVDKEVVHPGMPKRVENAKIALLDASLEVEKPELDAEIRINDPTQMKKFLDEEENILKEKVDKIAQTGANVVICQKGIDEVAQHYLAKKGILAVRRAKKSDLEKLARATGGRVVSNIDELTSQDLGYATLVEERKIGEDKMVFIEGAKNPKAVSILIRGGLERVVDETERALRDALGTVADVVRDGRAIAGGGAVETEIAKRLRKYAPQVGGKEQLAIEAYANALESLVMILIENGGFDPIELLVKLRSAHENETNKWHGINVYTGQIQDMWSLGVIEPAVVKMNAIKAATEASTLILRIDDLISAGKKSEGKTGEKKESEKGKEED
modifications: Alexa-532 label (site not stated)
